The data set has as its target integrin beta1 (SinoBiological 10587-H08H1) (UniProt P05556 21-728). Kind of data set: fluorescence polarization. On the technique in general: Fluorescence polarisation rises when a labelled molecule tumbles more slowly, as on binding a larger partner.

Drawing on article doi:10.1101/2022.07.28.501822, this text covers Kd for one molecule.

One may read the Kd as a measure of binding affinity in units of concentration. A lower Kd goes with tighter binding.

integrin beta1 (SinoBiological 10587-H08H1), sequence (P05556 21-728): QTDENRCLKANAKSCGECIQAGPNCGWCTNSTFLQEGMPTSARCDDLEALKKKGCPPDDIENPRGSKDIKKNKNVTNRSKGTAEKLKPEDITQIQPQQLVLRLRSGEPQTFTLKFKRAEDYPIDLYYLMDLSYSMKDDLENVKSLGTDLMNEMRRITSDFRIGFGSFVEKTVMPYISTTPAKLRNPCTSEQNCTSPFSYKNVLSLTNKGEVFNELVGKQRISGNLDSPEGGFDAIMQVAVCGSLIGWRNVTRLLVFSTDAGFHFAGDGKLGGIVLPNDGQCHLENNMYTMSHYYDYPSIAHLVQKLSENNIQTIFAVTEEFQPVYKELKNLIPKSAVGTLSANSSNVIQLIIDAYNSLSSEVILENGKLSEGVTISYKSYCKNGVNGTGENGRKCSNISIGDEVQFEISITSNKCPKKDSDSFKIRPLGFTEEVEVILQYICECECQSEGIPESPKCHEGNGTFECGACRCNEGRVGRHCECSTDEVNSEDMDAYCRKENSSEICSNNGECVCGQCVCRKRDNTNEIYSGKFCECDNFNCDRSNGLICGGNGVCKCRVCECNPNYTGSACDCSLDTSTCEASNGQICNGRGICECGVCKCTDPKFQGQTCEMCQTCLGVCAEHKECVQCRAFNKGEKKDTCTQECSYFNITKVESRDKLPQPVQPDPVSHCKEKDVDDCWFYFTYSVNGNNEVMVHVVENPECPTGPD

B1: FAM-GreenB1 (ssDNA)
DNA: ATCCAGAGTGACGCAGCATGGGGGTAGTGGTGGTTAGGAGTGGAGGCGAGGAGAGCGGTGGACACGGTGGCTTAGT
Take B1: the Kd amounted to 7 nM.
